# Reference: patent US20170037111A1, “Novel peptides and combination of peptides for use in immunotherapy against ovarian cancer and other cancers” (immatics biotechnologies GmbH, priority 2015, published 2017)
# Legend:
# CD8+ T cells = assay: In vitro T-cell priming (immunogenicity) with aAPCs loaded with peptide/MHC and anti-CD28, pMHC multimer readout; assay type: cell-based, human; conditions: in vitro immunogenicity of HLA class I peptides; for donors: percentage of positive donors; for wells: percentage of positive wells
# Text: In order to obtain information regarding the immunogenicity of the TUMAPs of the present invention, the inventors performed investigations using an in vitro T-cell priming assay based on repeated stimulations of CD8+ T cells with artificial antigen presenting cells (aAPCs) loaded with peptide/MHC complexes and anti-CD28 antibody.
# In order to perform in vitro stimulations by artificial antigen presenting cells loaded with peptide-MHC complex (pMHC) and anti-CD28 antibody, the inventors first isolated CD8+ T cells from fresh HLA-A*02 leukapheresis products via positive selection using CD8 microbeads (Miltenyi Biotec, Bergisch-Gladbach, Germany) of healthy donors obtained from the University clinics Mannheim, Germany, after informed consent.
# PBMCs and isolated CD8+ lymphocytes were incubated in T-cell medium (TCM) until use consisting of RPMI-Glutamax (Invitrogen, Karlsruhe, Germany) supplemented with 10% heat inactivated human AB serum (PAN-Biotech, Aidenbach, Germany), 100 U/ml Penicillin/100 μg/ml Streptomycin (Cambrex, Cologne, Germany), 1 mM sodium pyruvate (CC Pro, Oberdorla, Germany), 20 μg/ml Gentamycin (Cambrex). 2.5 ng/ml IL-7 (PromoCell, Heidelberg, Germany) and 10 U/ml IL-2 (Novartis Pharma, Nürnberg, Germany) were also added to the TCM at this step.
# Generation of pMHC/anti-CD28 coated beads, T-cell stimulations and readout was performed in a highly defined in vitro system using four different pMHC molecules per stimulation condition and 8 different pMHC molecules per readout condition.
# The purified co-stimulatory mouse IgG2a anti human CD28 Ab 9.3 (Jung et al., 1987) was chemically biotinylated using Sulfo-N-hydroxysuccinimidobiotin as recommended by the manufacturer (Perbio, Bonn, Germany). Beads used were 5.6 μm diameter streptavidin coated polystyrene particles (Bangs Laboratories, Illinois, USA).
# pMHC used for positive and negative control stimulations were A*0201/MLA-001 (peptide […] (SEQ ID NO. 664) from modified Melan-A/MART-1) and A*0201/DDX5-001 ([…] from DDX5, SEQ ID NO. 665), respectively.
# 800.000 beads/200 μl were coated in 96-well plates in the presence of 4×12.5 ng different biotin-pMHC, washed and 600 ng biotin anti-CD28 were added subsequently in a volume of 200 μl. Stimulations were initiated in 96-well plates by co-incubating 1×10^6 CD8+ T cells with 2×10^5 washed coated beads in 200 μl TCM supplemented with 5 ng/ml IL-12 (PromoCell) for 3 days at 37° C. Half of the medium was then exchanged by fresh TCM supplemented with 80 U/ml IL-2 and incubating was continued for 4 days at 37° C. This stimulation cycle was performed for a total of three times. For the pMHC multimer readout using 8 different pMHC molecules per condition, a two-dimensional combinatorial coding approach was used as previously described (Andersen et al., 2012) with minor modifications encompassing coupling to 5 different fluorochromes. Finally, multimeric analyses were performed by staining the cells with Live/dead near IR dye (Invitrogen, Karlsruhe, Germany), CD8-FITC antibody clone SK1 (BD, Heidelberg, Germany) and fluorescent pMHC multimers. For analysis, a BD LSRII SORP cytometer equipped with appropriate lasers and filters was used. Peptide specific cells were calculated as percentage of total CD8+ cells. Evaluation of multimeric analysis was done using the FlowJo software (Tree Star, Oregon, USA). In vitro priming of specific multimer+CD8+ lymphocytes was detected by comparing to negative control stimulations.
# Exemplary flow cytometry results after TUMAP-specific multimer staining for two peptides of the invention are shown in FIG. 3 together with corresponding negative controls.
# HLA-A*02:01 = HLA-A*02:01 (Homo sapiens, UniProt P04439, D140Y/D185E/D98H/E176V/E277Q/G131W/G231S/I119V/I121R/I166T/I218V/L300P/L318F/N151K/N90K/P208A/P217A/Q86G/Q94H/R138H/R169H/T345S); assay: MHC binding assay (UV-ligand exchange, β2m ELISA, peptide exchange yield); conditions: MHC class I binding score; binding to HLA-A*02:01 ranged by peptide exchange yield (UV-ligand exchange, β2m ELISA)
# In short: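 Binding is expressed as peptide exchange yield: stabilized MHC complexes were quantified by β2m ELISA, with a 450 nm TMB read-out on streptavidin-coated plates. Complexes came from UV-ligand exchange, where UV irradiation cleaves a photolabile peptide so the candidate peptide can load.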
Peptide exchange (HLA-A*02:01),Substance,donors (CD8+ T cells),wells (CD8+ T cells)
,663 (KIQEMQHFL; listed as Homo sapiens) [compound 663],+++ (50%-69% = +++),+ (<20% = +)
,652 (TLWYRAPEV; listed as Homo sapiens) [compound 652],++++ (> = 70% = ++++),+++ (50%-69% = +++)
,648 (LLWGNAIFL; listed as Homo sapiens) [compound 648],+++ (50%-69% = +++),
,659 (ILFPDIIARA; listed as Homo sapiens) [compound 659],+++ (50%-69% = +++),+ (<20% = +)
,662 (KIQEILTQV; listed as Homo sapiens) [compound 662],+++ (50%-69% = +++),+ (<20% = +)
″+++″ (≧50% = +++),67 (TLLAEALVTV; listed as Homo sapiens) [compound 67],,
″+++″ (≧50% = +++),205 (SLYPGTETMGL; listed as Homo sapiens) [compound 205],,
″+++″ (≧50% = +++),554 (LLMPSSEDLLL; listed as Homo sapiens) [compound 554],,
″++″ (≧20% = ++),80 (FLYDNLVESL; listed as Homo sapiens) [compound 80],,
″++″ (≧20% = ++),145 (FLATSGTLAGI; listed as Homo sapiens) [compound 145],,
″+++″ (≧50% = +++),436 (HLAEVSAEV; listed as Homo sapiens) [compound 436],,
″+++″ (≧50% = +++),313 (VLFDDELLMV; listed as Homo sapiens) [compound 313],,
″++″ (≧20% = ++),131 (FVPPVTVFPSL; listed as Homo sapiens) [compound 131],,
″++″ (≧20% = ++),227 (ALMNTLLYL; listed as Homo sapiens) [compound 227],,
″++″ (≧20% = ++),459 (ALITEVVRL; listed as Homo sapiens) [compound 459],,
″+++″ (≧50% = +++),487 (LLINSVFHV; listed as Homo sapiens) [compound 487],,
″++″ (≧20% = ++),180 (FQIDPHSGLVTV; listed as Homo sapiens) [compound 180],,
″+++″ (≧50% = +++),138 (YQYPRAILSV; listed as Homo sapiens) [compound 138],,
″++″ (≧20% = ++),197 (ALGPEGGRV; listed as Homo sapiens) [compound 197],,

Peptide exchange (HLA-A*02:01),Substance,donors (CD8+ T cells),wells (CD8+ T cells)
″+++″ (≧50% = +++),171 (LLLPLQILL; listed as Homo sapiens) [compound 171],,
″++″ (≧20% = ++),389 (LLADVTHLL; listed as Homo sapiens) [compound 389],,
″++″ (≧20% = ++),44 (ILDPISSGFLL; listed as Homo sapiens) [compound 44],,
″+++″ (≧50% = +++),6 (VLVSDGVHSV; listed as Homo sapiens) [compound 6],,
″+++″ (≧50% = +++),298 (VMITKLVEV; listed as Homo sapiens) [compound 298],,
″+++″ (≧50% = +++),555 (YVLEGLKSV; listed as Homo sapiens) [compound 555],,
″+++″ (≧50% = +++),593 (GLPRFGIEMV; listed as Homo sapiens) [compound 593],,
″+++″ (≧50% = +++),216 (NLWEDPYYL; listed as Homo sapiens) [compound 216],,
″+++″ (≧50% = +++),309 (GLFDGVPTTA; listed as Homo sapiens) [compound 309],,
″++″ (≧20% = ++),220 (LLQKFVPEI; listed as Homo sapiens) [compound 220],,
″++″ (≧20% = ++),211 (LLWPGAALL; listed as Homo sapiens) [compound 211],,
″++++″ (≧75% = ++++),339 (GLWEIENNPTVKA; listed as Homo sapiens) [compound 339],,
″++″ (≧20% = ++),431 (SLVNVVPKL; listed as Homo sapiens) [compound 431],,
″+++″ (≧50% = +++),193 (QLLDADGFLNV; listed as Homo sapiens) [compound 193],,
″+++″ (≧50% = +++),330 (QLALKVEGV; listed as Homo sapiens) [compound 330],,
″+++″ (≧50% = +++),390 (ALFMKQIYL; listed as Homo sapiens) [compound 390],,
″+++″ (≧50% = +++),343 (SLLEVNEESTV; listed as Homo sapiens) [compound 343],,
″++″ (≧20% = ++),354 (LILEGVDTV; listed as Homo sapiens) [compound 354],,
″+++″ (≧50% = +++),29 (KMLGIPISNILMV; listed as Homo sapiens) [compound 29],,

Peptide exchange (HLA-A*02:01),Substance,donors (CD8+ T cells),wells (CD8+ T cells)
″+++″ (≧50% = +++),241 (SLVEVNPAYSV; listed as Homo sapiens) [compound 241],,
″+++″ (≧50% = +++),167 (KVLEVTEEFGV; listed as Homo sapiens) [compound 167],,
″++++″ (≧75% = ++++),303 (AILPQLFMV; listed as Homo sapiens) [compound 303],,
″++″ (≧20% = ++),275 (YLVYILNEL; listed as Homo sapiens) [compound 275],,
″+++″ (≧50% = +++),208 (KISPVTFSV; listed as Homo sapiens) [compound 208],,
″+++″ (≧50% = +++),22 (IMEENPGIFAV; listed as Homo sapiens) [compound 22],,
″+++″ (≧50% = +++),397 (YLFGERLLEC; listed as Homo sapiens) [compound 397],,
″+++″ (≧50% = +++),136 (YLADPSNLFVV; listed as Homo sapiens) [compound 136],,
″++++″ (≧75% = ++++),387 (ALFQATAEV; listed as Homo sapiens) [compound 387],,
″+++″ (≧50% = +++),449 (KLAEGLDIQL; listed as Homo sapiens) [compound 449],,
″+++″ (≧50% = +++),426 (RLADKSVLV; listed as Homo sapiens) [compound 426],,
″+++″ (≧50% = +++),430 (HLYSSIEHLTT; listed as Homo sapiens) [compound 430],,
″+++″ (≧50% = +++),299 (YLLETSGNL; listed as Homo sapiens) [compound 299],,
″+++″ (≧50% = +++),71 (GILARIASV; listed as Homo sapiens) [compound 71],,
″+++″ (≧50% = +++),589 (KLYPQLPAEI; listed as Homo sapiens) [compound 589],,
″++++″ (≧75% = ++++),89 (YILPTETIYV; listed as Homo sapiens) [compound 89],,
″++″ (≧20% = ++),124 (ALYETELADA; listed as Homo sapiens) [compound 124],,
″+++″ (≧50% = +++),132 (LLVEQPPLAGV; listed as Homo sapiens) [compound 132],,
